Results on seven molecules are retold here after patent US20140056903A1 (Regeneron, published 2014).

Common to all, as to test: SPR, Ab captured, 37C
For orientation: In SPR one partner is held on a chip, and binding of the other changes the refractive index at the surface.

In experiment [1] the target is T1, monkey GFRα3 expressed with a C-terminal myc-myc-hexahistidine tag (monkey (Mf), UniProt O60609 32-374 (human entry), limits assumed).
T1 construct: also called MfGFRα3-mmh; MfGFRα3-mmH
T1 chain: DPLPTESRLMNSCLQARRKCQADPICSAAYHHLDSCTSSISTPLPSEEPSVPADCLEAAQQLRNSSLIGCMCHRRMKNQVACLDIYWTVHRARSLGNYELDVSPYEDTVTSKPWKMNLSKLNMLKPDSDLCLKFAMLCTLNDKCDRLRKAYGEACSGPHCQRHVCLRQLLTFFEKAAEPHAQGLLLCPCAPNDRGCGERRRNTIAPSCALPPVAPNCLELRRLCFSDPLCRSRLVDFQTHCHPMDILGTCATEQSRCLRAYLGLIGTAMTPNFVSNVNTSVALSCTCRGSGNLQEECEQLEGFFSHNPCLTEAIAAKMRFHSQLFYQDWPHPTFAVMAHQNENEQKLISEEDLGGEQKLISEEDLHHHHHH
The procedure: (§1) Antibodies were tested for binding to human GFRα3 expressed with either a C-terminal myc-myc-hexahistidine tag (hGFRα3-mmh; SEQ ID: 370, a C-terminal hFc tag (hGFRα3-hFc; SEQ ID:371), or a C-terminal mFc tag (hGFRα3-mFc; SEQ ID:372), as well as monkey GFRα3 expressed with a C-terminal myc-myc-hexahistidine tag (MfGFRα3-mmh; SEQ ID:373). Anti-GFRα3 antibodies were captured on either a goat anti-mouse IgG polyclonal antibody (GE Healthcare, #BR-1008-38) or a mouse anti-human IgG monoclonal antibody (GE Healthcare, #BR-1008-39) surface created through direct amine coupling to a Biacore CM5 sensor chip. Kinetic experiments were carried out using HBS-EP (10 mM HEPES, 150 mM NaCl, 3 mM EDTA, 0.05% Surfactant P20, at pH 7.4) or PBS buffer containing 0.05% v/v surfactant P20 as both the running buffer and the sample buffer. Binding to human GFRα3-mmh or monkey GFRα3-mmh was evaluated by injecting several concentrations ranging from 200 to 7.4 nM (3-fold dilutions) across the captured antibody surface. Binding to human GFRα3-mFc or human GFRα3-hFc was evaluated by injecting several concentrations ranging from 100 to 3.7 nM (3-fold dilutions) across the captured antibody surface. Antibody-antigen association was monitored for up to 4 minutes, while dissociation in buffer was monitored for up to 20 minutes. Kinetic association (kₐ) and dissociation (kd) rate constants were determined by processing and fitting the data to a 1:1 binding model using Scrubber 2.0c curve fitting software. Binding dissociation equilibrium constants (KD) and dissociative half-lives (t_{1/2}) were calculated from the kinetic rate constants as: KD (M)=kd/kₐ and t_{1/2} (min)=[ln 2/(60*kd)].

In experiment [2] the target is T2, human GFRα3 expressed with a C-terminal mFc tag (human).
T2 construct: also called hGFRα3-mFc
T2 chain: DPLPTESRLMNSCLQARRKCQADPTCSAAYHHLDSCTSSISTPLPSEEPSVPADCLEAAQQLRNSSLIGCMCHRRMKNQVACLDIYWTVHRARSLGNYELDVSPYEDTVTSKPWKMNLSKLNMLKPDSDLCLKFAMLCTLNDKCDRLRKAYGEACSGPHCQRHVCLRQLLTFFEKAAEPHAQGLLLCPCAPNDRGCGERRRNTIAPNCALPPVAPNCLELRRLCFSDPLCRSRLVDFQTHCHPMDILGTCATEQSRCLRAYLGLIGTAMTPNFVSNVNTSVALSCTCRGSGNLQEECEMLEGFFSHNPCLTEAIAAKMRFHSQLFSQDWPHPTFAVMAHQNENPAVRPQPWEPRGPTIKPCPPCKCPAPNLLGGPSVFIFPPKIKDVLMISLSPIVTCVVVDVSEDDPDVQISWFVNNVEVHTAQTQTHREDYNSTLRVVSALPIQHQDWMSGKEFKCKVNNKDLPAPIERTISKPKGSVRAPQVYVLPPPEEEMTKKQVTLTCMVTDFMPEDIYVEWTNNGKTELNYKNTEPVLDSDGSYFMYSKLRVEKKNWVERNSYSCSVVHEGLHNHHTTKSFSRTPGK
The procedure:
as §1

Experiment [3] has as its target T3, human GFRα3 expressed with a C-terminal myc-myc-hexahistidine tag (human, UniProt O60609 32-374, biotinylated (sites not given) in ELISA format 2 and in the Octet cross-competition; not in SPR).
T3 construct: also called hGFRα3-mmh; hGFRα3-mmH
The protocol: as §1

B1: H4H2344S (antibody, human IgG4, V domains shown)
VH: EVQLVESGGGVVQPGRSLRLSCAASGFSFSDYVMHWVRQAPGKGLEWVASIWFDGSNEFYADSVKGRFTISRDNSKNTLFLQMNSLRAEDTAVYYCAKKGVLVATSAFDIWGQGTMVTVSS
VL: DIQMTQSPSSLSASVGDRVTITCRASQSINNYLNWYHQKPGKAPKLLIYAASSLQSGVPSRFSGSGSGTDYTLTISSLQPEDFGNYYCQQSYRTSMYTFGQGTKVEIK
notes: human IgG4 Fc (H4H)
B1: in experiment [1], the Kd came to 3.57 nM, the koff was 0.000575 s⁻¹, the kon is 161000 M⁻¹ s⁻¹ and the t1/2 is 20 min. Also, in experiment [2], the Kd is 0.0891 nM, the koff is 8.96e-05 s⁻¹, the on-rate constant (kon) was 1.01e+06 M⁻¹ s⁻¹ and the t1/2 is 129 min. In experiment [3], this molecule displayed a Kd of 2.58 nM, a koff of 0.000724 s⁻¹, a kon of 280000 M⁻¹ s⁻¹ and a t1/2 of 16 min.

B2: H4H2354S (antibody, human IgG4, V domains shown)
VH: QVQLVESGGGVVQPGRSLRLSCAASGFSFSDYVMHWVRQAPGKGLEWVASIWFDGSNEFYADSVKGRFTISRDNSKNTLFLQMNSLRAEDTAVYYCAKKGVLVATSAFDIWGQGTMVTVSS
VL: DIQLTQSPSSLSASVGDRVTITCRASQSINNYLNWYHQKPGKAPKLLIYAASSLQSGVPSRFSGSGSGTDYTLTISSLQPEDFGNYYCQQSYRTSMYTFGQGTKVEIK
notes: human IgG4 Fc (H4H); also called H4H2354S-1
In experiment [1], B2 registered a Kd of 2.78 nM, a koff of 0.000435 s⁻¹, an association rate constant (kon) of 157000 M⁻¹ s⁻¹ and a t1/2 of 27 min. In experiment [2], this molecule came in with a Kd of 0.0895 nM, a koff of 9.11e-05 s⁻¹, a kon of 1.02e+06 M⁻¹ s⁻¹ and a t1/2 of 127 min. Moreover, in experiment [3], the Kd stood at 2.31 nM, the koff is 0.000649 s⁻¹, the on-rate constant (kon) was 281000 M⁻¹ s⁻¹ and the t1/2 stood at 18 min.

B3: H4H2293P (antibody, human IgG4, V domains shown)
VH: QVQLVESGGGVVQPGRSLRLSCAASGFSFSDYVMHWVRQAPGKGLEWVASIWFDGSNELYADSVKGRFTISRDNSKNTLFLQMNSLRAEDTAVYYCAKKGVLVATSAFHIWGQGTMVTVSS
VL: AIQMTQSPSSLSASVGDRVTITCRASQNINNYLNWYHQKPGKAPNLLIYAASSLQSGVPSRFSGSGSGTDYTLTISSLQPEDFGNYYCQQSYSTSMYTFGQGTKLEIK
notes: human IgG4 Fc (H4H)
Consider B3, for which, in experiment [1], the Kd was 0.358 nM, the koff turned out to be 0.000158 s⁻¹, the kon is 441000 M⁻¹ s⁻¹ and the t1/2 was 73 min. In experiment [2], this molecule gave a Kd of 0.0299 nM, a koff of 5.13e-05 s⁻¹, a kon of 1.71e+06 M⁻¹ s⁻¹ and a t1/2 of 225 min. Also, in experiment [3], the Kd turned out to be 0.313 nM, the koff stood at 0.000244 s⁻¹, the kon was found to be 781000 M⁻¹ s⁻¹ and the t1/2 is 47 min.

B4: H4H2346S (antibody, human IgG4, V domains shown)
VH: QVQLVESGGGVVQPGRSLRLSCAASGFSFSDYVMHWVRQAPGKGLEWVASIWFDGSNEFYADSVKGRFTISRDNSKNTLFLQMNSLRAEDTAVYYCAKKGVLVATSAFDIWGQGTMVTVSS
VL: EIVMTQSPSSLSASVGDRVTITCRASQSINNYLNWYHQKPGKAPKLLIYAASSLQSGVPSRFSGSGSGTDYTLTISSLQPEDFGNYYCQQSYRTSMYTFGQGTKVEIK
notes: human IgG4 Fc (H4H)
For B4, in experiment [1], the affinity, expressed as Kd, was 3.34 nM; the koff amounted to 0.000511 s⁻¹; the kon amounted to 153000 M⁻¹ s⁻¹; the t1/2 was 23 min. Besides, in experiment [2], the Kd worked out at 0.0781 nM, the koff was determined as 0.000137 s⁻¹, the kon amounted to 1.75e+06 M⁻¹ s⁻¹ and the t1/2 worked out at 84 min. Moreover, in experiment [3], the Kd came to 1.41 nM, the koff was found to be 0.000589 s⁻¹, the kon stood at 419000 M⁻¹ s⁻¹ and the t1/2 amounted to 20 min.

B5: H4H2341S (antibody, human IgG4, V domains shown)
VH: EVQLVESGAEVKKSGSSVKVSCKASGGTFSRYAISWVRQAPGQGLEWMGGIIPLFGTLNYAQKFQGRVTLTTDESTSTAYMELSSLRSEDTAVYYCAVFYYGSGSYRNWFDPWGQGTLVTVSS
VL: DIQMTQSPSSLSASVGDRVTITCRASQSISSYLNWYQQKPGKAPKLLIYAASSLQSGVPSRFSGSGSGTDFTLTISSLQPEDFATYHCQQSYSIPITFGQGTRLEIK
notes: human IgG4 Fc (H4H)
In experiment [1], B5 came in with a Kd of 3.53 nM, a koff of 0.000508 s⁻¹, a kon of 144000 M⁻¹ s⁻¹ and a t1/2 of 23 min. Moreover, in experiment [2], binding was put at a Kd of 0.0789 nM, the koff was found to be 7.58e-05 s⁻¹, the kon was found to be 961000 M⁻¹ s⁻¹ and the t1/2 turned out to be 152 min. For the same molecule, in experiment [3], the affinity, expressed as Kd, was 2.98 nM; the koff was determined as 0.000737 s⁻¹; the kon was determined as 248000 M⁻¹ s⁻¹; the t1/2 was 16 min.

B6: H4H2345S (antibody, human IgG4, V domains shown)
VH: EVQLVESGGGLVRPGRSLRLSCAASGFTFDNYAMHWVRQVPGKGLEWVSGITWNSVSLGYADSVKGRFTISRDNAQNSLYLQMNSLRTVDTALYYCAKDRWGGSYYFDFWGQGTLVTVSS
VL: DIVMTQSPSSLSASVGDRVTITCRASQGISNYLAWYQQKPGKVPKLLIYSASTLQSGVPSRFSGSGSGTDFTLTISNLQPEDFATFFCQKYNSAPTFGGGTKVEIK
notes: human IgG4 Fc (H4H)
Turning to B6, in experiment [1], binding was characterised by a dissociation constant (Kd) of 26.3 nM, the koff is 0.00353 s⁻¹, the kon is 134000 M⁻¹ s⁻¹ and the t1/2 came to 3 min. Moreover, in experiment [2], the Kd was found to be 0.106 nM, the koff worked out at 7.44e-05 s⁻¹, the kon is 700000 M⁻¹ s⁻¹ and the t1/2 turned out to be 155 min. In experiment [3], this molecule registered a dissociation constant Kd of 47.3 nM, a koff of 0.0087 s⁻¹, a kon of 184000 M⁻¹ s⁻¹ and a t1/2 of 1 min.

B7: H4H2364S (antibody, human IgG4, V domains shown)
VH: EVQLVESGGGLEQPGGSLRLSCAASGFTFSSYVMSWVRQVPGKGLEWVSVISGSGGSTYYADSVKGRFTISRDNSKNTLYLQMNSLRAEDTAVYYCAKPSSYSSSNFHYGMDVWGQGTTVTVSS
VL: DIQMTQSPYSVSASVGDRVTITCRASQGISSWLAWYQQKPGRAPKLLIYAASSLQSGVPSRFSGSGSGTDFTLTISSLQPEDFATYYCQKTNSFPFTFGPGTKVEIK
notes: human IgG4 Fc (H4H)
In experiment [1], B7 returned a Kd of 5.14 nM, a dissociation rate constant (koff) of 0.000861 s⁻¹, a kon of 168000 M⁻¹ s⁻¹ and a t1/2 of 13 min. In experiment [2], this molecule displayed a dissociation constant Kd of 0.0328 nM, a koff of 4.14e-05 s⁻¹, a kon of 1.26e+06 M⁻¹ s⁻¹ and a t1/2 of 279 min. Moreover, in experiment [3], binding was characterised by a dissociation constant (Kd) of 0.809 nM, the koff is 0.000273 s⁻¹, the kon stood at 338000 M⁻¹ s⁻¹ and the t1/2 is 42 min.

A word on the Kd: it is a measure of binding affinity in units of concentration. In general, koff refers to the first-order rate constant of dissociation. For orientation: kon means a measure of how fast the partners come together.
